Assays:
[1] = target: T1, Anti-IL-8 Antibody; assay: SPR (Biacore T200), 25 C, pH 7.4; SKA antibody captured by anti-rabbit IgG, Anti-IL-8 Antibody injected 0-800 nM
T1 construct: also called anti-human IL-8 antibody; Fc-Mutated Antibody
Description: To confirm the binding ability of Anti Fc-Mutation Antibodies that show selective binding to SG115v1, KD values of Anti Fc-Mutation Antibodies against Anti-IL-8 Antibody at pH 7.4 were determined at 25 degrees C. using Biacore T200 instrument (GE Healthcare). Sequence of Fc region of Anti-IL-8 Antibody has high similarity to that of Anti-hC5 Antibody.
Anti-rabbit IgG (Abbexa) was immobilized onto FC1 and 2 of a CMS sensor chip using an amine coupling kit (GE Healthcare). For the immobilization of anti-rabbit IgG, HBS-EP+, pH7.4 (GE Healthcare) buffer was used as running buffer. After the immobilization, running buffer was changed to Phosphate pH7.4 buffer (50 mM phosphate buffer containing 150 mM NaCl and 0.05 w/v % P-20, pH 7.4). Each Anti Fc-Mutation Antibody was captured onto FC2 of the sensor chip by anti-rabbit IgG. The amount of Anti Fc-Mutation Antibody to be captured was adjusted so that the number of resonance units (RU) was 100. Anti-IL-8 Antibody was injected at 0, 100, 400, and 800 nM at 10 micro L/min. Sensor surface was regenerated after each cycle with 10 mM Glycine-HCl, pH2.0, which was injected at a flow rate of 30 micro L/min. KD values were obtained using Biacore T200 Evaluation software, version 2.0 (GE Healthcare).

[2] = target: T2, SG115v1 (human, UniProt P01857 1-328 = IgG part); assay: ELISA, OD405 against dose (ng/mL, log axis 1-100)
T2 construct: Carries the CH2 modifications of SG115 (Arg235, Arg236, Lys239, EU); Construct used in the ELISA is not described beyond the constant region; also called modified IgG heavy chain constant region SG115v1

[3] = target: T3, SG115 (human, UniProt P01857 1-328 = IgG part); assay: ELISA, OD405 against dose (ng/mL, log axis 1-100)
T3 construct: also called modified IgG heavy chain constant region SG115

[4] = target: T4, Glm (human, UniProt P01857 1-328 = IgG part); assay: ELISA, OD405 against dose (ng/mL, log axis 1-100)
T4 construct: Construct used in the ELISA is not described beyond the constant region; also called G1m

[5] = target: T5, G4d (human, UniProt P01861 1-325 = IgG part); assay: ELISA, OD405 against dose (ng/mL, log axis 1-100)
T5 construct: Construct used in the ELISA is not described beyond the constant region

[6] = target: T6, SG115v2 (human, UniProt P01857 1-328 = IgG part); assay: ELISA, OD405 against dose (ng/mL, log axis 1-100)
T6 construct: Carries the CH3 modifications of SG115 (Leu428, Ala434, Arg438, Glu440, EU); Construct used in the ELISA is not described beyond the constant region; also called modified IgG heavy chain constant region SG115v2
T6 sequence (P01857 other isoform, or with tags, fused parts or gaps limits assumed): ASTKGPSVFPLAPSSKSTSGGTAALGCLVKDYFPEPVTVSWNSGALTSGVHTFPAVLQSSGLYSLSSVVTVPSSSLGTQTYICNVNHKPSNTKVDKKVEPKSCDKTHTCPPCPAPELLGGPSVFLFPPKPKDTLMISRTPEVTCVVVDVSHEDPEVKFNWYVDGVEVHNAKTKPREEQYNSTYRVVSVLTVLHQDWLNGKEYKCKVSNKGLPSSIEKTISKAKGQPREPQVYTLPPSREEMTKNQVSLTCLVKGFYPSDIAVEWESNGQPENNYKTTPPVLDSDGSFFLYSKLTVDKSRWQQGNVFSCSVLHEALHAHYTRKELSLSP

T1 sequence (constant, as listed by the source limits assumed): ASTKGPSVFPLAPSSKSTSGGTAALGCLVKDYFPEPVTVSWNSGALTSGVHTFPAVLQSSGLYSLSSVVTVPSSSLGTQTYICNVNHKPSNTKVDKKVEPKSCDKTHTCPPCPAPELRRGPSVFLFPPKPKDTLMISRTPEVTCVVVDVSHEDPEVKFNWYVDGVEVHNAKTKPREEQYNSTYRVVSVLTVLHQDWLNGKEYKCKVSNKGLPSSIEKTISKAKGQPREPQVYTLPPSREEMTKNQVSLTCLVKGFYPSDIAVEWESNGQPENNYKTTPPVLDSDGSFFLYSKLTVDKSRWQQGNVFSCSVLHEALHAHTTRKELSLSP
T5 sequence (P01861 1-325 S108P limits assumed): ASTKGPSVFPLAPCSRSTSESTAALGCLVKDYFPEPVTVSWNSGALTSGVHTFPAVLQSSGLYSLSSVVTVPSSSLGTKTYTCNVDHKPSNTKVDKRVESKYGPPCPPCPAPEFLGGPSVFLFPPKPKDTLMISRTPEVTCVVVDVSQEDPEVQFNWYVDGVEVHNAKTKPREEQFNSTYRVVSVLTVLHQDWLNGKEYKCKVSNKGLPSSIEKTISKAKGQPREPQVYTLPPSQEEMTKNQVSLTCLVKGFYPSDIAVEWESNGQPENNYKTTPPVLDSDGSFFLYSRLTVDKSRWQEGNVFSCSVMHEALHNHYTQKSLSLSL
T3 sequence (P01857 other isoform, or with tags, fused parts or gaps limits assumed): as the sequence (constant, as listed by the source limits assumed) above, with S122K, T319Y counted along it
T4 sequence (P01857 1-328 D239E/L241M limits assumed): as the sequence (constant, as listed by the source limits assumed) above, with R118L, R119G, G210A, S213A, S214P, L311M, A317N, T319Y, R321Q, E323S counted along it
T2 sequence (P01857 other isoform, or with tags, fused parts or gaps limits assumed): as the sequence (constant, as listed by the source limits assumed) above, with S122K, L311M, A317N, T319Y, R321Q, E323S counted along it

Binder | Kd [1] | koff [1] | kon [1] | binding result [2] | binding result [3] | binding result [4] | binding result [5] | binding result [6]
SKA0054 (antibody, V domains shown, Recombinant rabbit monoclonal from B-cell cloning, expressed in FreeStyle 293-F cells; the first screen used B-cell culture supernatant; also called Anti-SG115 Antibody; rabbit Anti Fc-Mutation Antibody) VH: QSLEESGGGLVQPEGSLTLTCTASGFSFSSSFWICWVRQAPGKGLEWLACIDAGSSDNTYYANWAKGRFTISKTSSTTVTLQMTSLTDADTATYFCARDRDAAGDAGYGYATSFNLWGPGTLVTVSS VL: AIDMTQTPSSVSAAVGGTVTINCQASESIYSNLAWYQQKPGQRPKLLIYLASTLASGVPSRFKGSGSGTEFTLTISDLECADAATYYCQSVYYDSRGDTFFWAFGGGTEVVVKG | 96.8 nM | 0.000966 s⁻¹ | 9980 M⁻¹ s⁻¹ | binds | binds | no binding (tested: about 60 ng/mL) | no binding (tested: about 60 ng/mL) | no binding (tested: about 60 ng/mL)
SKA0127 (antibody, V domains shown, Recombinant rabbit monoclonal from B-cell cloning, expressed in FreeStyle 293-F cells; the first screen used B-cell culture supernatant; also called Anti-SG115 Antibody; rabbit Anti Fc-Mutation Antibody) VH: QSVEESGGRLVTPGTPLTLTCTVSGIDLSTYAMTWVRQAPGKGLEYIGYINGGGSAYYASWVNGRFTISKTSTTADLKITSPTTEDTATYFCARGPVGSYHRIWGPGTLVTVSS VL: ALVMTQTPSSVSEPVGGTVTINCRASEDIESYLAWYQQKPGQPPKLLIYATSNLETGVPSRFKGSGSGTDYTLTISGVQCADAATYYCQGYYELSSIDNNAFGGGTEVVVKG | 45.4 nM | 0.000804 s⁻¹ | 17700 M⁻¹ s⁻¹ | binds | binds | no binding (tested: about 60 ng/mL) | no binding (tested: about 60 ng/mL) | no binding (tested: about 60 ng/mL)
